Data reported in patent publication US20100150834A1, “HIGH AFFINITY EPHB RECEPTOR BINDING COMPOUNDS AND METHODS OF USE THEREOF” (priority 2006, published 2010).
Values belong to the substance of their own block, whether it stands above or below them. No end group written: not given here.

Key:
[1] = target: EphB3 (Homo sapiens, UniProt P54753); test: EphB receptor specificity (% binding), Table 1; conditions: binding to EphB3
[2] = target: EphB2 (Homo sapiens, UniProt P29323); test: EphB receptor specificity (% binding), Table 1; conditions: binding to EphB2
[3] = system: EphB1; test: EphB receptor specificity (% binding), Table 1; conditions: binding to EphB1
[4] = target: T1, EphB6 (Homo sapiens, UniProt O15197); test: EphB receptor specificity (% binding), Table 1; conditions: binding to EphB6
T1 sequence (O15197 32-1021): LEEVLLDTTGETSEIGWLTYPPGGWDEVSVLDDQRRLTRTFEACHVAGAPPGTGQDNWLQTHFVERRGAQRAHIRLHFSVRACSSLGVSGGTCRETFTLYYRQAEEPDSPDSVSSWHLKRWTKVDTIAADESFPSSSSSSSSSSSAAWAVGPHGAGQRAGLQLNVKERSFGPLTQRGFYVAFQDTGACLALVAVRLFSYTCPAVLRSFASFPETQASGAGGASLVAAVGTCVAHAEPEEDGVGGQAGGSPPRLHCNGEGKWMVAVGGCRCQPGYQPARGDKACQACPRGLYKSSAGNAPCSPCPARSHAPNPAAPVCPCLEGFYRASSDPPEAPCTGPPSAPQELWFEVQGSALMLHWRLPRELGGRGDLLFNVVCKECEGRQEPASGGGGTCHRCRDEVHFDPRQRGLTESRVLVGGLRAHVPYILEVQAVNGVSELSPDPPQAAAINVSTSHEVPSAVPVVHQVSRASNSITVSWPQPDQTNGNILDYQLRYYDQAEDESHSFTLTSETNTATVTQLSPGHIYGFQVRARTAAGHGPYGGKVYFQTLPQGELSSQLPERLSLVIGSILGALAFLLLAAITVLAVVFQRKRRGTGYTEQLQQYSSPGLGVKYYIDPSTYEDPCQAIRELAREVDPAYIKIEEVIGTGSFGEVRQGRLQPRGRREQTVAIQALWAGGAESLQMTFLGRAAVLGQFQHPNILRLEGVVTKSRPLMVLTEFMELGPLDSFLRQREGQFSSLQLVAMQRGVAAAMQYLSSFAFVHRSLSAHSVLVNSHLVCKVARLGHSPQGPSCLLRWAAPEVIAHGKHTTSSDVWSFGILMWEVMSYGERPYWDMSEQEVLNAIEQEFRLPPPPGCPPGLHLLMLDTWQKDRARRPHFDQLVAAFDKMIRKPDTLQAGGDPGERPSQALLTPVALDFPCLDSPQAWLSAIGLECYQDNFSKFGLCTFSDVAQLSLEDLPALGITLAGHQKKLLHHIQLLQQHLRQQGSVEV

[5] = target: T2, EphB4 (Mus musculus, UniProt P54761); test: EphB receptor specificity (% binding), Table 1; conditions: binding to EphB4
T2 sequence (P54761 16-987): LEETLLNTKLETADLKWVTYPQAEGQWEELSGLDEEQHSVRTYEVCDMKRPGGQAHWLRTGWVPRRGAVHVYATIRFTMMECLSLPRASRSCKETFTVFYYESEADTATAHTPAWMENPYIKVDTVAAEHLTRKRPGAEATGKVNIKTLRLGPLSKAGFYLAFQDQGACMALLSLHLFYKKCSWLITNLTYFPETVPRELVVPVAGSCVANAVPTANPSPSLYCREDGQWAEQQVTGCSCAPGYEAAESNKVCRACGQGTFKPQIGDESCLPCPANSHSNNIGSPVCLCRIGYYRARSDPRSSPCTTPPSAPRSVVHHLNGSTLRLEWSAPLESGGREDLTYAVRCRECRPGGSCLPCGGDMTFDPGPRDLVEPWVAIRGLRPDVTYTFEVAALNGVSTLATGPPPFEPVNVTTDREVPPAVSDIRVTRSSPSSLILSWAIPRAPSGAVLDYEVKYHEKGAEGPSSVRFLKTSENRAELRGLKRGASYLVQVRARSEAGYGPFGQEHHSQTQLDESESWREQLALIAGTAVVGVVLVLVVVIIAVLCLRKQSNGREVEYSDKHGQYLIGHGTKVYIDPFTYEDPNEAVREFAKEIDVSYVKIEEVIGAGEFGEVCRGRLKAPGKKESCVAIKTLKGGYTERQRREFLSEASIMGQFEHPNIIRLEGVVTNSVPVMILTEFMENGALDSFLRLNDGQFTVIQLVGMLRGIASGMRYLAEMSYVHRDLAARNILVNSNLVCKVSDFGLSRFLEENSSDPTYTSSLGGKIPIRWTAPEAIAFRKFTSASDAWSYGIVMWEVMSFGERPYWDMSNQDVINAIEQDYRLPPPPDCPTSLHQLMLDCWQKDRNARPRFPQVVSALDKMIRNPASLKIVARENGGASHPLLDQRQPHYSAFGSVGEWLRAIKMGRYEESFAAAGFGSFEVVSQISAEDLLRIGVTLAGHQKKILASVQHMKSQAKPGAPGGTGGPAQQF

[6] = target: T3, murine EphB4 ectodomain (Mus musculus, UniProt P54761); test: Inhibition of murine ephrin-B2 AP binding to immobilized murine EphB4 ectodomain (Example 4)
T3 construct: Wells coated with the murine EphB4 ectodomain
T3 sequence (P54761 16-539 limits assumed): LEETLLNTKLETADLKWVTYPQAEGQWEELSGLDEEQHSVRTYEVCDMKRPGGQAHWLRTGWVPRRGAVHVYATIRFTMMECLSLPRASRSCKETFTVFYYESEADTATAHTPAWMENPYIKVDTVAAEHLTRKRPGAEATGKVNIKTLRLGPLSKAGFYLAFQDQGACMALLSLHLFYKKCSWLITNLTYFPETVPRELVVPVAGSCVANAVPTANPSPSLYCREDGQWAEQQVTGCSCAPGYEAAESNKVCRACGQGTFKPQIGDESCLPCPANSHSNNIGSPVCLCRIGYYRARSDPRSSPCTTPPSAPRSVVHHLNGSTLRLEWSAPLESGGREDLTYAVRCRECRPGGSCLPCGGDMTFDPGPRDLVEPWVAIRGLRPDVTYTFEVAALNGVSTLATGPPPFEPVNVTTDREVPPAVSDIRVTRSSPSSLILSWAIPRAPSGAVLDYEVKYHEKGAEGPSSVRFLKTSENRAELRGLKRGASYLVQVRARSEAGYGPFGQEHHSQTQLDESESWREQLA
Procedure: Wells coated with the murine EphB4 ectodomain were incubated with murine ephrin-B2 AP and different concentrations of the indicated peptides. Ephrin-B2 AP binding to the immobilized EphB4 receptor ectodomain was measured in the presence of various concentrations of the peptides and detected by measuring alkaline phosphatase activity. Ephrin-B2 AP binding in the presence of peptide was normalized to binding in the absence of peptide.

[7] = target: T4, murine EphB4 (Mus musculus, UniProt P54761); test: TNYL-RAW Fc immobilized on protein A ELISA plates, binding of murine EphB4 AP; conditions: purified from HEK293 cell culture supernatants (FIG. 5B)
T4 construct: purchased R&D Systems 446-B4-200
T4 sequence (P54761 16-539 limits assumed): T3 sequence (P54761 16-539 limits assumed)

[8] = Half-life of TNYL-RAW Fc in HEK293 cell culture medium; format: in vitro ADME; conditions: purified from medium in which HEK293 cells were grown for 4 days
[9] = target: T5, EphB4 (Homo sapiens, UniProt P54760); test: EphB4 tyrosine phosphorylation in MDA-MB-231 breast cancer cells (immunoprecipitation, PTyr immunoblot); format: cell-based; conditions: 2 μg/ml, clustered with anti-Fc antibodies, 20 minutes, MDA-MB-231 cells (FIG. 5E)
T5 construct: endogenous in cells; host or cells: MDA-MB-231 breast cancer cells
T5 sequence (P54760 16-987): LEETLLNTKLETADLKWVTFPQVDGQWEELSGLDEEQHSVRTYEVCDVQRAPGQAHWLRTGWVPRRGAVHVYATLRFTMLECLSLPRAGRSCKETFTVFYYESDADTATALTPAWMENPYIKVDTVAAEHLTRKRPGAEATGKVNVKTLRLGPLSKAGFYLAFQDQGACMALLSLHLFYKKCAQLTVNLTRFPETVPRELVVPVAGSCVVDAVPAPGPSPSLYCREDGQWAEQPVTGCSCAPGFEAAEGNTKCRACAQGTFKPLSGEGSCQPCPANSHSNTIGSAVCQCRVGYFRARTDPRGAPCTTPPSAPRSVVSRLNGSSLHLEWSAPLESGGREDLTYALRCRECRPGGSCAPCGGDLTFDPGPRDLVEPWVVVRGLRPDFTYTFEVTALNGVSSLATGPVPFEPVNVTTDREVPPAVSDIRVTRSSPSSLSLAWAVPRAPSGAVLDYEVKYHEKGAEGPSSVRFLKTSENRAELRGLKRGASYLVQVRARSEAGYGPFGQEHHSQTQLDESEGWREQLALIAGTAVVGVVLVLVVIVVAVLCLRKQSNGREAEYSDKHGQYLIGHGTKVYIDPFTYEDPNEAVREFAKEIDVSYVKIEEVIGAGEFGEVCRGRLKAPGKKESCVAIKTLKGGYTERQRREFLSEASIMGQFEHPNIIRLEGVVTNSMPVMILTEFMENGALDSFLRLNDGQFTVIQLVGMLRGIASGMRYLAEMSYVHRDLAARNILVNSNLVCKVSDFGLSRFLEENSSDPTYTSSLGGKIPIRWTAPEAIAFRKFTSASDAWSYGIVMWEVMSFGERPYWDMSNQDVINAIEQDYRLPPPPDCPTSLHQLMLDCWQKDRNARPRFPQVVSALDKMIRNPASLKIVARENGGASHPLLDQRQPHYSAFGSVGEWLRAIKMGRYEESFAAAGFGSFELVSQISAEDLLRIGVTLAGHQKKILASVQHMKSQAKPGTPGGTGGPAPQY
Procedure: EphB4 tyrosine phosphorylation was detected in EphB4 immunoprecipitates by immunoblotting with anti-phosphotyrosine antibodies (PTyr). […] Cells were also stimulated with 1 μg/ml ephrin-B2 Fc or human Fc as positive and negative controls, respectively.

EphB3, sequence (P54753 34-998): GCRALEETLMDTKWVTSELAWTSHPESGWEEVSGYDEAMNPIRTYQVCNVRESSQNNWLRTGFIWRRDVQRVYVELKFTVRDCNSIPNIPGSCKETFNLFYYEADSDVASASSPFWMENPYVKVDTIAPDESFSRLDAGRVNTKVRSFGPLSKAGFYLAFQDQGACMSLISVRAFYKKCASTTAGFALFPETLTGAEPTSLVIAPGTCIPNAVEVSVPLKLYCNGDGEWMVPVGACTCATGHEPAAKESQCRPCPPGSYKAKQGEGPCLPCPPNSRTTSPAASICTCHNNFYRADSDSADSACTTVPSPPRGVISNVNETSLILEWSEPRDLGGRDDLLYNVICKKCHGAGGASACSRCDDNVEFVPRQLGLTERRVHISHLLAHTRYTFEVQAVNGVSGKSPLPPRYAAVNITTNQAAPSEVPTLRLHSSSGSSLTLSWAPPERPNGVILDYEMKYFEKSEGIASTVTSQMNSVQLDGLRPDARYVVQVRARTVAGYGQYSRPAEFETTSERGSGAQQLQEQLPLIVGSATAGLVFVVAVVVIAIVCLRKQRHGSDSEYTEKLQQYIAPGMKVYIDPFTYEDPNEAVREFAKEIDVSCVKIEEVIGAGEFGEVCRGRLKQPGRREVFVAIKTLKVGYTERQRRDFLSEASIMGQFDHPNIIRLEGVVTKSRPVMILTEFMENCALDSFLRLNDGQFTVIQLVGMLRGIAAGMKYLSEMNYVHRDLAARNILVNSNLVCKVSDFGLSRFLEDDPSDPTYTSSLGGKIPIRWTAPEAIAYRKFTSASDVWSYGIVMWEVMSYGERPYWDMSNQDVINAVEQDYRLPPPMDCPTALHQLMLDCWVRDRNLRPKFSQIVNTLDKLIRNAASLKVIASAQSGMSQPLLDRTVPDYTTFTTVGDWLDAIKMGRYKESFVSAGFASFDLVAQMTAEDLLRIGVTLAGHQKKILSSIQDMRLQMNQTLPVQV
EphB2, sequence (P29323 19-1055): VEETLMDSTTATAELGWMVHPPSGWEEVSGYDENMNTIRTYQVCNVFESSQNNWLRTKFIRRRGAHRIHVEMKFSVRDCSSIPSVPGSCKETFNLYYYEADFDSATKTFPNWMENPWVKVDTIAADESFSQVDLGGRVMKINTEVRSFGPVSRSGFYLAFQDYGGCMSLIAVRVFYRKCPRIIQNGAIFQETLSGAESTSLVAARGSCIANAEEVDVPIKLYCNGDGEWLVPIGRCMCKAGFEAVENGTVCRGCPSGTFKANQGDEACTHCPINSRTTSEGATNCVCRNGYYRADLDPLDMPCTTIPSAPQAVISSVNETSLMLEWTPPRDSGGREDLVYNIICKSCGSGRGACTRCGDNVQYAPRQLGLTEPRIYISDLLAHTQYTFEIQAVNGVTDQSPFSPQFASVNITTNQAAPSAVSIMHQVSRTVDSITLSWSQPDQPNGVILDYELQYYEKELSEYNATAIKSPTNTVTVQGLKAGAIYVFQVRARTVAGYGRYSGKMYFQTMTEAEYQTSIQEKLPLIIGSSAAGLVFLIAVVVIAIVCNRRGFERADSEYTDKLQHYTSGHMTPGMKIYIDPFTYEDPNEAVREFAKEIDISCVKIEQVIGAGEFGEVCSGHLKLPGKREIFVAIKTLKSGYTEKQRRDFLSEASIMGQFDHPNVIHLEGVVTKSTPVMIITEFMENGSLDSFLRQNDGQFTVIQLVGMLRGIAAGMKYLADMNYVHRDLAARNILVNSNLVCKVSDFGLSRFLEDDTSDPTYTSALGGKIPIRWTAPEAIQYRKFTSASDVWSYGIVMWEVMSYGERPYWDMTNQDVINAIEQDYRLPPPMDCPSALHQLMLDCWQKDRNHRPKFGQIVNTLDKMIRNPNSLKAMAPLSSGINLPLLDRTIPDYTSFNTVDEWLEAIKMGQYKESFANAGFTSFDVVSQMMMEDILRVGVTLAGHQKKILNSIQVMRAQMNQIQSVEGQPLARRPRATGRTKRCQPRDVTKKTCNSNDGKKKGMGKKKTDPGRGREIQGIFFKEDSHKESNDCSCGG

- EphB Receptor Specificity (% Binding) B3 [1]: 2%
- EphB Receptor Specificity (% Binding) B2 [2]: 15%
- EphB Receptor Specificity (% Binding) B1 [3]: 2%
- EphB Receptor Specificity (% Binding) B6 [4]: 4%
- EphB Receptor Specificity (% Binding) B4 [5]: 100%
Substance: 26 (LPHGPVAAWDA; EphB4-binding peptide) [compound 26]

- IC50 [6]: > 10 µM
Substance: LFSPNGPIARAW [L-RAW]

Substance: TNYL-RAW Fc fusion protein: TNYL-RAW peptide, GSGSK linker and human Fc of IgG1; two fusion proteins dimerize via the Fc domain (TNYLFSPNGPIARAWGSGSK-{human IgG1 Fc}; also: dimerizes via the Fc domain)
- binding to EphB4 AP [7]: able to bind EphB4 AP with substantial affinity
- half-life [8]: appears to be longer than that of the synthetic peptide without Fc
- EphB4 tyrosine phosphorylation [9]: did not stimulate EphB4 tyrosine phosphorylation
